Source: US20250295687A1, “TREM COMPOSITIONS AND METHODS OF USE FOR TREATING PROLIFERATIVE DISORDERS” (Flagship Pioneering Innovations VI, LLC, priority 2022, published 2025)

How the values were obtained:
[1] = test system: nonsense mutation in TP53 (R196X; Arg→TGA) in Calu-6 lung carcinoma cells; assay: Western blot of full-length p53 after PTC readthrough in Calu-6 cells (Example 6); format: cell-based; details: for PTC suppression / production of full-length p53 protein: 48 hours, Western blotting (FIGS. 1-3)
Description: Calu-6 is a lung cancer cell line known to harbor a nonsense mutation in TP53 (R196X; Arg→TGA) that results in a premature termination codon (PTC). To test PTC readthrough of the TREM, cells were treated with Arg-TGA, Ser-TGA, or Ser-TAG TREMs or with known translational read-through inducing drugs (RIDs).
(§1) To monitor the ability of the TREMs to readthrough the PTC mutation, the expression of TP53 was assessed by Western blotting 48 hours post-TREM delivery into the cells. Cells were washed once with phosphate buffered saline (PBS) and lysed with 100 uL of RIPA buffer (50 mM Tris, pH 8.0, 150 mM NaCl, 1% Nonidet-P40 (NP-40), 0.5% Deoxycholate, 0.1% sodium dodecyl sulfate (SDS)) supplemented with protease inhibitor, for 30 min at 4° C. The protein extracts were then centrifuged at 21,000 g for 15 min and the supernatant was transferred into clean tubes. Protein concentration was determined using a BCA Protein Assay Kit according to the manufacturer's instructions. 20 μg of total protein were loaded into an SDS-PAGE gel and transferred onto nitrocellulose membranes after electrophoresis. The membranes were probed with anti-p53, anti-p21, and anti-β-tubulin antibodies.

[2] = test system: p21 (downstream transcriptional target of p53) in Calu-6 cells; assay: Western blot of p21 protein levels in Calu-6 cells (p53 functional rescue); format: cell-based
Description: Calu-6 is a lung cancer cell line known to harbor a nonsense mutation in TP53 (R196X; Arg→TGA) that results in a premature termination codon (PTC). To test PTC readthrough of the TREM, cells were treated with Arg-TGA, Ser-TGA, or Ser-TAG TREMs or with known translational read-through inducing drugs (RIDs). Briefly, 6×10^5 cells were seeded into a 6-well plate and transfected with […] of TREM in 15 uL of RNAiMAX+800 uL OptiMEM; 0.5 or 5 mg/mL G418, an aminoglycoside antibiotic; or Ataluren, a TRID that is approved for the treatment of DMD in Europe at the reported maximally effective dose of 10 uM.
as §1
To determine whether the rescued p53 protein was functional, cellular p21 protein levels were measured (FIG. 4). p21 is a downstream transcriptional target and well-established biomarker of p53 activity.

NanoLuc with a TGA PTC = assay: In vivo PTC readthrough of NanoLuc TGA reporter by hydrodynamic gene delivery (FIG. 5B); parameters: species or system mouse
Description: Hydrodynamic gene delivery (HGD) is a simple, fast, safe, and effective method for delivering transgenes in rodent models. A set of plasmids expressing both an eGFP-Luc-TGA reporter and a TREM were designed. To evaluate tolerability and determine optimal plasmid concentration for maximum TREM delivery to the liver, the eGFP-WT Luc plasmid was administered to adult CD-1 mice via tail vein hydrodynamic injection at three doses: 10 μg, 30 μg, and 50 μg. […] Next, 50 μg of DNA in saline […] was administered to mice via tail vein hydrodynamic injection to assess target engagement and PTC readthrough using either 1) eGFP-Nluc TGA reporter plasmid (PL-854), or 2) eGFP-Nluc WT reporter (PL1202), or 3) all-in-one plasmid eGFP-Nluc-TGA reporter with S-TAG (PL-1216), or 4) all-in-one plasmid eGFP-Nluc-TGA reporter with R-TGA (PL-1215).

O=C(O)c1cccc(-c2noc(-c3ccccc3F)n2)c1 [Ataluren, reference compound]
percentage of full-length p53 out of the total p53 protein ([1]; Calu-6 cells treated with 10 μM): about 0% | PTC suppression / production of full-length p53 protein ([1]; Calu-6 cells): ineffective

CN[C@@H]1[C@@H](O)[C@@H](O[C@@H]2[C@@H](O)[C@H](O[C@H]3O[C@H]([C@@H](C)O)[C@@H](O)[C@H](O)[C@H]3N)[C@@H](N)C[C@H]2N)OC[C@]1(C)O [G418, reference compound]
rescue of TP53 mRNA levels / expression of truncated p53 protein ([1]; Calu-6 cells): more effective in rescuing mRNA levels | percentage of full-length p53 out of the total p53 protein ([1]; Calu-6 cells treated with 0.5 mg/mL): about 30% | percentage of full-length p53 out of the total p53 protein ([1]; Calu-6 cells treated with 5 mg/mL): about 30% | PTC suppression / production of full-length p53 protein ([1]; Calu-6 cells): marginally increased

B1: Arg-TGA: arginine non-cognate TREM: sequence of ARG-UCU-TREM body but with anticodon UCA instead of UCU (nucleic acid)
chain: GGCUCCGUGGCGCAAUGGAUAGCGCAUUGGACUUCAAAUUCAAAGGUUCCGGGUUCGAGUCCCGGCGGAGUCGCCA
modifications: listed as RNA, chemistry not fully specified
percentage of full-length p53 of the total p53 protein ([1]; Calu-6 cells treated with 100 nM): about 95% | full-length p53 levels increase relative to cells treated with SEQ ID NO:623 ([1]; Calu-6 cells, 100 nM TREM, vs 100 nM SEQ ID NO:623): about 55 fold | full-length p53 levels increase relative to cells treated with SEQ ID NO:625 ([1]; Calu-6 cells, 100 nM TREM, vs 100 nM SEQ ID NO:625): about 11 fold | full-length p53 levels increase relative to cells treated with Ataluren ([1]; Calu-6 cells, 100 nM TREM, vs 10 μM Ataluren): about 55 fold | full-length p53 levels increase relative to cells treated with 0.5 mg/mL G418 ([1]; Calu-6 cells, 100 nM TREM, vs 0.5 mg/mL G418): about 55 fold | full-length p53 levels increase relative to cells treated with 5 mg/mL G418 ([1]; Calu-6 cells, 100 nM TREM, vs 5 mg/mL G418): about 14 fold | full-length p53 levels increase relative to mock-transfected cells ([1]; Calu-6 cells, 100 nM TREM, vs mock-transfected cells): about 55 fold | full-length p53 levels increase relative to untreated cells ([1]; Calu-6 cells, 100 nM TREM, vs untreated cells): about 55 fold | total p53 that was full length (FIG. 3) ([1]; Calu-6 cells, 48 hours post-TREM delivery, Western blotting): about 90% | PTC suppression / production of full-length p53 protein ([1]; Calu-6 cells): robustly induce PTC suppression | p21 levels increase relative to cells treated with SEQ ID NO:623 ([2]; 100 nM TREM, vs 100 nM SEQ ID NO:623): about 60 fold | p21 levels increase relative to cells treated with SEQ ID NO:625 ([2]; 100 nM TREM, vs 100 nM SEQ ID NO:625): about 30 fold | p21 levels increase relative to cells treated with Ataluren ([2]; 100 nM TREM, vs 10 μM Ataluren): about 60 fold | p21 levels increase relative to cells treated with 0.5 mg/mL G418 ([2]; 100 nM TREM, vs 0.5 mg/mL G418): about 60 fold | p21 levels increase relative to cells treated with 5 mg/mL G418 ([2]; 100 nM TREM, vs 5 mg/mL G418): about 60 fold | p21 levels increase relative to mock-transfected cells ([2]; 100 nM TREM, vs mock-transfected cells): about 60 fold | p21 levels increase relative to untreated cells ([2]; 100 nM TREM, vs untreated cells): about 60 fold | rescue of cellular p21 protein levels (FIG. 4) ([2]; Western blotting): able to rescue p21 protein levels | increase in luciferase signal compared to controls (NanoLuc with a TGA PTC; mice, 50 μg of DNA in saline, tail vein hydrodynamic injection, all-in-one plasmid eGFP-Nluc-TGA reporter (FIG. 5B)): ~1000 fold | total flux signal in the liver (NanoLuc with a TGA PTC; mouse, hydrodynamic delivery of plasmid (FIG. 5B)): about 2×10^9 p/s
